Residue numbers refer to the chain shown, from its start. Numbers in names are those of the source. Read-outs that look alike come from different tables or passages of the source.
How the values were obtained:
[1] = target: T1, human FcγRIIa type R extracellular domain with C-terminal His tag (human, UniProt P12318 34-217); test: SPR (Biacore)
T1 construct: extracellular domain; also called FcγRIIaR; FcgRIIaR
T1 sequence (looked up): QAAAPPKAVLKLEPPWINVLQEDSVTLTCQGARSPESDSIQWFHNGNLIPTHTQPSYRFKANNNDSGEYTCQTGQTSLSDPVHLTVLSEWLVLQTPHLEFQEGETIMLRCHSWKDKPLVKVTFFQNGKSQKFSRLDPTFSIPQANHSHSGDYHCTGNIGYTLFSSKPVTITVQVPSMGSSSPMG

[2] = target: T2, human FcγRIIIa type V extracellular domain with C-terminal His tag (human, UniProt P08637 17-208); test: SPR (Biacore)
T2 construct: extracellular domain; also called FcγRIIIaV; FcgRIIIaV
T2 sequence (P08637 17-208 F176V): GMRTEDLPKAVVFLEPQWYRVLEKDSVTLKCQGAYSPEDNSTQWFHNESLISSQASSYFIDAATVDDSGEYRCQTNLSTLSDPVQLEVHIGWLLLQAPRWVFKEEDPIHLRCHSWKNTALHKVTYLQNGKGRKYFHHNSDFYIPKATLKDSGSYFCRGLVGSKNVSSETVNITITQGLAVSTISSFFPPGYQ

[3] = target: T3, human FcγRIIa type R extracellular domain with C-terminal His tag (human, UniProt P12318 34-217); test: SPR, Ref. Ex. 25
T3 construct: extracellular domain; also called FcγRIIaR; FcγRIIa R
T3 sequence (looked up): T1 sequence (looked up)

[4] = target: T4, human FcγRIIb extracellular domain with C-terminal His tag (human, UniProt P31994 43-217); test: SPR, Ref. Ex. 25
T4 construct: extracellular domain; for crystals expressed with kifunensine and trimmed with Endo F1; also called FcγRIIb extracellular region
T4 sequence (looked up): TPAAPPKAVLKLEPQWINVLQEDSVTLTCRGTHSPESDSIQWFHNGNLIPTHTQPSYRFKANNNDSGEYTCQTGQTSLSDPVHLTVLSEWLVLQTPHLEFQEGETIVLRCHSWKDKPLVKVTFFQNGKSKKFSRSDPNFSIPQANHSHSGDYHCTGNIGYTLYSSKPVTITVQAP

[5] = target: T5, human FcγRIIIa type V extracellular domain with C-terminal His tag (human, UniProt P08637 17-208); test: SPR, Ref. Ex. 25
T5 construct: extracellular domain; also called FcγRIIIaV; FcγRIIIa V type
T5 sequence (P08637 17-208 F176V): as the sequence (P08637 17-208 F176V) above

[6] = target: T6, human FcγRIIa type H extracellular domain with C-terminal His tag (human, UniProt P12318 34-217); test: SPR (Biacore)
T6 construct: extracellular domain; also called FcγRIIaH; FcgRIIaH
T6 sequence (looked up): T1 sequence (looked up) with R134H

[7] = target: T7, human FcγRIIIa type V (allotype V158) extracellular domain with C-terminal His tag (human, UniProt P08637 17-208); test: SPR (Biacore), antibody captured, FcγR analyte
T7 construct: extracellular domain; also called FcγRIIIaV; FcγRIIIa V type; not shown: His tag at the C terminus
T7 sequence (P08637 17-208 F176V): as the sequence (P08637 17-208 F176V) above

[8] = target: T8, human FcγRIIa type R (R131) extracellular domain with C-terminal His tag (human, UniProt P12318 34-217); test: SPR (Biacore), antibody captured, FcγR analyte
T8 construct: extracellular domain; also called FcγRIIaR; not shown: His tag at the C terminus
T8 sequence (looked up): T1 sequence (looked up)

[9] = target: T9, human FcγRIIb extracellular domain with C-terminal His tag (human, UniProt P31994 43-217); test: SPR (Biacore), antibody captured, FcγR analyte
T9 construct: extracellular domain; not shown: His tag at the C terminus
T9 sequence (looked up): T4 sequence (looked up)

[10] = target: T10, human FcγRIa extracellular domain with C-terminal His tag (human, UniProt P12314 16-292); test: SPR (Biacore), antibody captured, FcγR analyte
T10 construct: not shown: His tag at the C terminus
T10 sequence (P12314 16-292): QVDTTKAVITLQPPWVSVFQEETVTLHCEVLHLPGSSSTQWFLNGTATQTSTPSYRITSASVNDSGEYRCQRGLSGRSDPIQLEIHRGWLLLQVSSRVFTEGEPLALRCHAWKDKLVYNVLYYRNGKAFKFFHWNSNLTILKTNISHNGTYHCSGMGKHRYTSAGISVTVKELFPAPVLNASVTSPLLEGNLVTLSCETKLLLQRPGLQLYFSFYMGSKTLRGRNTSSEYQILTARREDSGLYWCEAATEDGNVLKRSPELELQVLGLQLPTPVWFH

[11] = target: T11, human FcγRIIa type H (allotype H131) extracellular domain with C-terminal His tag (human, UniProt P12318 34-217); test: SPR (Biacore), antibody captured, FcγR analyte
T11 construct: extracellular domain; also called FcγRIIaH; FcγRIIa H type; not shown: His tag at the C terminus
T11 sequence (looked up): T1 sequence (looked up) with R134H

[12] = target: T12, human FcγRIIb extracellular domain with C-terminal His tag (human, UniProt P31994 43-217); test: SPR (Biacore), antibody captured, FcγR analyte; remark: listed apart in the source
T12 construct: extracellular domain; not shown: His tag at the C terminus
T12 sequence (looked up): T4 sequence (looked up)

[13] = target: T8, human FcγRIIa type R (R131) …; test: SPR (Biacore), antibody captured, FcγR analyte; remark: listed apart in the source
[14] = target: T13, human FcγRIa extracellular domain with C-terminal His tag (human, UniProt P12314 16-292); test: SPR (Biacore), antibody captured, FcγR as analyte
T13 construct: also called FcgRIa
T13 sequence (P12314 16-292): as above

[15] = target: T14, human FcγRIIa type R extracellular domain with C-terminal His tag (human, UniProt P12318 34-217); test: SPR (Biacore), antibody captured, FcγR as analyte
T14 construct: extracellular domain; also called FcγRIIaR; FcgRIIaR
T14 sequence (looked up): T1 sequence (looked up)

[16] = target: T15, human FcγRIIb extracellular domain with C-terminal His tag (human, UniProt P31994 43-217); test: SPR (Biacore), antibody captured, FcγR as analyte
T15 construct: extracellular domain; also called FcgRIIb
T15 sequence (looked up): T4 sequence (looked up)

B1: IL6R-2B253/IL6R-L (antibody, human IgG1, kappa)
heavy: QVQLQESGPGLVKPSETLSLTCAVSGHSISHDHAWSWVRQPPGEGLEWIGFISYSGITNYNPSLQGRVTISRDNSKNTLYLQMNSLRAEDTAVYYCARSLARTTAMDYWGEGTLVTVSSASTKGPSVFPLAPSSKSTSGGTAALGCLVKDYFPEPVTVSWNSGALTSGVHTFPAVLQSSGLYSLSSVVTVPSSSLGTQTYICNVNHKPSNTKVDKKVEPKSCDKTHTCPPCPAPDLLGGDSVFLFPPKPKDTLMISRTPEVTCVVVDVSHEDPEVKFNWYVDGVEVHNAKTKPREEQYNSTYRVVSVLTVLHQDWLNGKEYKCKMSNKALPAPIEKTISKAKGQPREPQVYTLPPSRDELTKNQVSLTCLVKGFYPSDIAVEWESNGQPENNYKTTPPVLDSDGSFFLYSKLTVDKSRWQQGNVFSCSVMHEALHNHYTQESLSLSP
light: not shown
notes: EU numbering; alterations on IL6R-B3; copies: 2 + 2
- Kd [1]: 5 µM
- Kd [2]: 50 µM

B2: IL6R-PD042/IL6R-L (antibody, human IgG1, kappa)
heavy: B1 heavy with D235E, L236W, M254Y, M325V, N436Y, E441K
light: not shown
notes: also called P238D/L234W; L234W/P238D; copies: 2 + 2
- Kd [3]: 16 µM
- Kd [4]: 2 µM
- Kd [5]: 37 µM

B3: IL6R-BP132/IL6R-L (antibody, human IgG1, kappa)
heavy: B1 heavy with M325V, K328A, A332K
light: not shown
notes: as for B1
- Kd [1]: 8 µM
- Kd [6]: 30 µM

B4: IL6R-BP217/IL6R-L (antibody, human IgG1, kappa)
heavy: B1 heavy with D235E, G239D, S269Q, H270D, P273G, Y298D, M325V, A332K
light: not shown
notes: copies: 2 + 2
- Kd [7]: 60 µM

B5: IL6R-BP471/IL6R-L (antibody, human IgG1, kappa)
heavy: B1 heavy with G239D, H270D, P273G, Y298D, M325V, A332R, P333S
light: not shown
notes: P331S introduced into IL6R-BP230; copies: 2 + 2
- Kd [8]: 0.8 µM

B6: IL6R-BP350/IL6R-L (antibody, human IgG1, kappa)
heavy: B1 heavy with G239D, S269E, H270E, P273G, M325V
light: not shown
notes: S267E introduced into IL6R-BP267; copies: 2 + 2
- Kd [9]: 0.1 µM

B7: IL6R-BP475/IL6R-L (antibody, human IgG1, kappa)
heavy: B1 heavy with G239D, H270D, P273G, Y298D, M325V, A329G, A332S
light: not shown
notes: A327G and A330S introduced into IL6R-BP230; copies: 2 + 2
- Kd [8]: 1 µM

B8: IL6R-BP243/IL6R-L (antibody, human IgG1, kappa)
heavy: B1 heavy with L236Y, G239D, H270D, P273G, M325V, A332R
light: not shown
notes: copies: 2 + 2
- Kd [10]: 0.003 µM
- Kd [11]: 6 µM

B9: IL6R-BP239/IL6R-L (antibody, human IgG1, kappa)
heavy: B1 heavy with L236Y, G239D, S269Q, H270D, P273G, Y298D, M325V, K328A, A332R
light: not shown
notes: copies: 2 + 2
- Kd [12]: 0.06 µM

B10: IL6R-BP238/IL6R-L (antibody, human IgG1, kappa)
heavy: B1 heavy with L236Y, G239D, H270D, P273G, Y298D, M325V, K328A, A332R
light: not shown
notes: copies: 2 + 2
- Kd [11]: 7 µM

B11: IL6R-BP234/IL6R-L (antibody, human IgG1, kappa)
heavy: B1 heavy with L236Y, G239D, S269Q, H270D, P273G, Y298D, M325V, K328D, A332K
light: not shown
notes: copies: 2 + 2
- Kd [11]: 20 µM

B12: IL6R-BP514/IL6R-L (antibody, human IgG1, kappa)
heavy: B1 heavy with G239D, H270E, P273G, E274F, M325V
light: not shown
notes: E272F introduced into IL6R-BP267; copies: 2 + 2
- Kd [13]: 3 µM

B13: IL6R-2B172/IL6R-L (antibody, human IgG1, kappa)
heavy: B1 heavy with D235E
light: not shown
notes: IgG1 type
- Kd [14]: 0.003 µM
- Kd [15]: 6.1 µM
- KD(IIb) of parent polypeptide/KD(IIb) of altered polypeptide [16]: 4 fold vs IL6R-B3/IL6R-L

B14: IL6R-BP106/IL6R-L (antibody, human IgG1, kappa)
heavy: B1 heavy with D235E, H270D, M325V
light: not shown
notes: IgG1 type
- Kd [14]: 0.004 µM
- Kd [15]: 11 µM
- KD(IIb) of parent polypeptide/KD(IIb) of altered polypeptide [16]: 3.3 fold vs IL6R-B3/IL6R-L
